Test results from publication PMC3060920, “Structural Analysis of a Repetitive Protein Sequence Motif in Strepsirrhine Primate Amelogenin” (PLoS ONE, 2011).

Target: the molecule itself
Assay: dynamic light scattering; self-assembly into nanospheres; 0.4 mg/mL, pH 8, 25 mM Tris buffer, 22°C; Rayleigh sphere model, sphere-equivalent hydrodynamic radii

B1: rp(H)M180, recombinant His-tagged mouse amelogenin M180 (natural protein, UniProt P63277-1 17-196, looked up)
chain: MPLPPHPGSPGYINLSYEVLTPLKWYQSMIRQPYPSYGYEPMGGWLHHQIIPVLSQQHPPSHTLQPHHHLPVVPAQQPVAPQQPMMPVPGHHSMTPTQHHQPNIPPSAQQPFQQPFQPQAIPPQSHQPMQPQSPLHPMQPLAPQPPLPPLFSMQPLSPILPELPLEAWPATDKTKREEVD
notes: Assembles into nanospheres at pH 8; also called wild type mouse amelogenin; mAmelx; source: E. coli (pQE30), purified (Ni-NTA); not shown: poly-histidine, N-terminal, kept
binding result: binds
